Target: binding reagent of the similar bridge assay for the anti-CD19 (SJ25C1) CAR
Assay: similar bridge assay for the anti-CD19 (SJ25C1) CAR

binding reagent of the similar bridge assay for the anti-CD19 (SJ25C1) CAR, sequence (scFv, as listed by the source limits assumed): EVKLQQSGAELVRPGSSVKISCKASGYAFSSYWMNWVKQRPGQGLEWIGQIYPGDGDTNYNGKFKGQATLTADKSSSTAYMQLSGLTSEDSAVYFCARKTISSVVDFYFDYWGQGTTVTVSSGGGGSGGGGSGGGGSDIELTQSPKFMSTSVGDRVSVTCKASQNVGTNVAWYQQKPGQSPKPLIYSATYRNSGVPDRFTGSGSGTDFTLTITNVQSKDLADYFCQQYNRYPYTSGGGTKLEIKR

fold signal over plasma background: > 5 fold | sensitivity of the bridge assay: < 100 ng/mL
B1: anti-idiotype antibody clone A-1 (anti-ID A-1) (antibody, mouse IgG1, kappa, V domains shown)
VH: QVQLQQPGSELVRPGGSVKLSCKASDYTFTSYWMHWVRQRPGQGLEWIGNIYPGSGGTNYDEKFKRKATLTVDTSSSTAYMQLRSLTSEDSAVYYCTREVTTVAYYYSMDYWGQGTSVTVSS
VL: DIQMTQTTSSLSASLGDRVTISCRASQDISNYLNWYQQKPDGTVKLLIYYTSRLHSGVPSRFSGSGSGTDYSLTISNLEQEDIATYFCQQGKTVPFTFGSGTKLEIKR
